The experiment concerns the target paclitaxel-stabilised microtubule polymerised from bovine αβ-tubulin (bovine) (UniProt Q6B856).

This passage reports K (0.5 MT) of the steady-state MT-activated ATPase (10 nM motor domain, paclitaxel-stabilised MTs, 20°C) results from article PMC4358365, “Conserved mechanisms of microtubule-stimulated ADP release, ATP binding, and force generation in transport kinesins” (eLife, 2014).

Chain of UniProt Q6B856 (Q6B856 whole entry, looked up): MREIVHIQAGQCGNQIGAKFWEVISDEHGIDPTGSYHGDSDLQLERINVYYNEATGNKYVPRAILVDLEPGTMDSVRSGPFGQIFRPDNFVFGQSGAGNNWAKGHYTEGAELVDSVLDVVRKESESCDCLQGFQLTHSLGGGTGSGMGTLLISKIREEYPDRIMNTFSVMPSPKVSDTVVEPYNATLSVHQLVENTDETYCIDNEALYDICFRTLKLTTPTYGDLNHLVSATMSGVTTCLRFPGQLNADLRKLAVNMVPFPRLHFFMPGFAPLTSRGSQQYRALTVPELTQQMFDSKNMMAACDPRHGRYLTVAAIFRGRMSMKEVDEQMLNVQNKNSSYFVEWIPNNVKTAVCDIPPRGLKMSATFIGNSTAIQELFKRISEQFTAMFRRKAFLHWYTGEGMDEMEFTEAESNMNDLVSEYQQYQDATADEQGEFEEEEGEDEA

The molecule “human kinesin-1 (Kin1) motor domain construct (Kif5A, residues 1–340) (from UniProt Q12840 1-340) (domain or fragment)” returned a K (0.5 MT) of the steady-state MT-activated ATPase (10 nM motor domain, paclitaxel-stabilised MTs, 20°C) of 12.7 µM.

B1: human kinesin-3 (Kin3) motor domain construct (Kif1A, residues 1–361) (domain or fragment)
chain: MAGASVKVAVRVRPFNSREMSRDSKCIIQMSGSTTTIVNPKQPKETPKSFSFDYSYWSHTSPEDINYASQKQVYRDIGEEMLQHAFEGYNVCIFAYGQTGAGKSYTMMGKQEKDQQGIIPQLCEDLFSRINDTTNDNMSYSVEVSYMEIYCERVRDLLNPKNKGNLRVREHPLLGPYVEDLSKLAVTSYNDIQDLMDSGNKARTVAATNMNETSSRSHAVFNIIFTQKRHDAETNITTEKVSKISLVDLAGSERADSTGAKGTRLKEGANINKSLTTLGKVISALAEMDSGPNKNKKKKKTDFIPYRDSVLTWLLRENLGGNSRTAMVAALSPADINYDETLSTLRYADRAKQIRCNAVIN
For the molecule B1, the K (0.5 MT) of the steady-state MT-activated ATPase (10 nM motor domain, paclitaxel-stabilised MTs, 20°C) was 0.0537 µM.
